Reference: publication PMC10786891, “Massively parallel profiling of RNA-targeting CRISPR-Cas13d”

T1: EsCas13d, nuclease-dead (Eubacterium siraeum, UniProt B0MS50, R295A;H300A;R849A;H854A)
T1 sequence: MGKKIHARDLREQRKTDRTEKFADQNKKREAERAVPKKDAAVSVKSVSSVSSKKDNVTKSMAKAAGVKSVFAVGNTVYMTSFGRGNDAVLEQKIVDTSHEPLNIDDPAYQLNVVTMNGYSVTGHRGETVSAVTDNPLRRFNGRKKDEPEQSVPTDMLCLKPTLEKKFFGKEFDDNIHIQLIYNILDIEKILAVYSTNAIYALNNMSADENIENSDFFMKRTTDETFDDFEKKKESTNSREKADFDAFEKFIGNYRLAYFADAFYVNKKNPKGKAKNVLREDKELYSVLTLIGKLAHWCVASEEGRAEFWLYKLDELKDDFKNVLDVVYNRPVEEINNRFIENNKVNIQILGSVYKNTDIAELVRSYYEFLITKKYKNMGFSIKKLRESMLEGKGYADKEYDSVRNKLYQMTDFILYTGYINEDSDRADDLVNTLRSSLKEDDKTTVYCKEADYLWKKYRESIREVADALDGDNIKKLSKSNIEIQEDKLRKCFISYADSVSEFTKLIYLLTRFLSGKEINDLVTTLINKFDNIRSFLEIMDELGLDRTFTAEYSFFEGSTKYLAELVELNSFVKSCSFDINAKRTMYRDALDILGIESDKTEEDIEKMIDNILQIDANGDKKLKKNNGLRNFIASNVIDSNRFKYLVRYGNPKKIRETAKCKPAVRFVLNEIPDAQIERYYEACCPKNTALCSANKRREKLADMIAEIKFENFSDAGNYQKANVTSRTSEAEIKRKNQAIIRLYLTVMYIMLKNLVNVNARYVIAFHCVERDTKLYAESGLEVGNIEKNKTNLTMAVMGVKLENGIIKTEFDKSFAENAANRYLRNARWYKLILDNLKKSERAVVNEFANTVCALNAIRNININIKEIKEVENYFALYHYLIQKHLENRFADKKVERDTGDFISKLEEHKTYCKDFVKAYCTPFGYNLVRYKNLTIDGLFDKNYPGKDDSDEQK

B1: target 1 MT 5'PFS GUA 3'PFS CAG (mixed)
RNA 1: CACCCGUGCAAAAAUGCAGGGGUCUAAAACUGAGCGGAUAACCUCUCUAUGG
RNA 2: GGGAAUGGAUCCACAUCUACGAAUUCGUACCAUAGAGAGGUUAUCCGCUCACAGAGAUCGGAAGAGCACACGU
B2: target 1 MT 5'PFS UGG 3'PFS UUG (mixed)
RNA 1: CACCCGUGCAAAAAUGCAGGGGUCUAAAACUGAGCGGAUAACCUCUCUAUGG
RNA 2: GGGAAUGGAUCCACAUCUACGAAUUCUGGCCAUAGAGAGGUUAUCCGCUCAUUGAGAUCGGAAGAGCACACGU
B3: target 1 MT 5'PFS ACU 3'PFS CAU (mixed)
RNA 1: CACCCGUGCAAAAAUGCAGGGGUCUAAAACUGAGCGGAUAACCUCUCUAUGG
RNA 2: GGGAAUGGAUCCACAUCUACGAAUUCACUCCAUAGAGAGGUUAUCCGCUCACAUAGAUCGGAAGAGCACACGU
B4: target 1 MT 5'PFS ACG 3'PFS CGU (mixed)
RNA 1: CACCCGUGCAAAAAUGCAGGGGUCUAAAACUGAGCGGAUAACCUCUCUAUGG
RNA 2: GGGAAUGGAUCCACAUCUACGAAUUCACGCCAUAGAGAGGUUAUCCGCUCACGUAGAUCGGAAGAGCACACGU
B5: target 1 MT 5'PFS GCG 3'PFS UUC (mixed)
RNA 1: CACCCGUGCAAAAAUGCAGGGGUCUAAAACUGAGCGGAUAACCUCUCUAUGG
RNA 2: GGGAAUGGAUCCACAUCUACGAAUUCGCGCCAUAGAGAGGUUAUCCGCUCAUUCAGAUCGGAAGAGCACACGU
B6: target 1 MT 5'PFS AGA 3'PFS AAU (mixed)
RNA 1: CACCCGUGCAAAAAUGCAGGGGUCUAAAACUGAGCGGAUAACCUCUCUAUGG
RNA 2: GGGAAUGGAUCCACAUCUACGAAUUCAGACCAUAGAGAGGUUAUCCGCUCAAAUAGAUCGGAAGAGCACACGU
B7: target 1 MT 5'PFS CAA 3'PFS AAC (mixed)
RNA 1: CACCCGUGCAAAAAUGCAGGGGUCUAAAACUGAGCGGAUAACCUCUCUAUGG
RNA 2: GGGAAUGGAUCCACAUCUACGAAUUCCAACCAUAGAGAGGUUAUCCGCUCAAACAGAUCGGAAGAGCACACGU
B8: target 1 MT 5'PFS GCG 3'PFS UUG (mixed)
RNA 1: CACCCGUGCAAAAAUGCAGGGGUCUAAAACUGAGCGGAUAACCUCUCUAUGG
RNA 2: GGGAAUGGAUCCACAUCUACGAAUUCGCGCCAUAGAGAGGUUAUCCGCUCAUUGAGAUCGGAAGAGCACACGU
B9: target 1 MT 5'PFS UGG 3'PFS UUA (mixed)
RNA 1: CACCCGUGCAAAAAUGCAGGGGUCUAAAACUGAGCGGAUAACCUCUCUAUGG
RNA 2: GGGAAUGGAUCCACAUCUACGAAUUCUGGCCAUAGAGAGGUUAUCCGCUCAUUAAGAUCGGAAGAGCACACGU
B10: target 1 MT 5'PFS UGC 3'PFS ACG (mixed)
RNA 1: CACCCGUGCAAAAAUGCAGGGGUCUAAAACUGAGCGGAUAACCUCUCUAUGG
RNA 2: GGGAAUGGAUCCACAUCUACGAAUUCUGCCCAUAGAGAGGUUAUCCGCUCAACGAGAUCGGAAGAGCACACGU
B11: target 1 MT 5'PFS UGG 3'PFS UUU (mixed)
RNA 1: CACCCGUGCAAAAAUGCAGGGGUCUAAAACUGAGCGGAUAACCUCUCUAUGG
RNA 2: GGGAAUGGAUCCACAUCUACGAAUUCUGGCCAUAGAGAGGUUAUCCGCUCAUUUAGAUCGGAAGAGCACACGU
B12: target 1 MT 5'PFS UCG 3'PFS UCC (mixed)
RNA 1: CACCCGUGCAAAAAUGCAGGGGUCUAAAACUGAGCGGAUAACCUCUCUAUGG
RNA 2: GGGAAUGGAUCCACAUCUACGAAUUCUCGCCAUAGAGAGGUUAUCCGCUCAUCCAGAUCGGAAGAGCACACGU
B13: target 1 MT 5'PFS AGA 3'PFS AAG (mixed)
RNA 1: CACCCGUGCAAAAAUGCAGGGGUCUAAAACUGAGCGGAUAACCUCUCUAUGG
RNA 2: GGGAAUGGAUCCACAUCUACGAAUUCAGACCAUAGAGAGGUUAUCCGCUCAAAGAGAUCGGAAGAGCACACGU
B14: target 1 MT 5'PFS CAA 3'PFS AAA (mixed)
RNA 1: CACCCGUGCAAAAAUGCAGGGGUCUAAAACUGAGCGGAUAACCUCUCUAUGG
RNA 2: GGGAAUGGAUCCACAUCUACGAAUUCCAACCAUAGAGAGGUUAUCCGCUCAAAAAGAUCGGAAGAGCACACGU
B15: target 1 MT 5'PFS GCG 3'PFS UUU (mixed)
RNA 1: CACCCGUGCAAAAAUGCAGGGGUCUAAAACUGAGCGGAUAACCUCUCUAUGG
RNA 2: GGGAAUGGAUCCACAUCUACGAAUUCGCGCCAUAGAGAGGUUAUCCGCUCAUUUAGAUCGGAAGAGCACACGU
B16: target 1 MT 5'PFS AAC 3'PFS UUC (mixed)
RNA 1: CACCCGUGCAAAAAUGCAGGGGUCUAAAACUGAGCGGAUAACCUCUCUAUGG
RNA 2: GGGAAUGGAUCCACAUCUACGAAUUCAACCCAUAGAGAGGUUAUCCGCUCAUUCAGAUCGGAAGAGCACACGU
B17: target 1 MT 5'PFS GCG 3'PFS UUA (mixed)
RNA 1: CACCCGUGCAAAAAUGCAGGGGUCUAAAACUGAGCGGAUAACCUCUCUAUGG
RNA 2: GGGAAUGGAUCCACAUCUACGAAUUCGCGCCAUAGAGAGGUUAUCCGCUCAUUAAGAUCGGAAGAGCACACGU
B18: target 1 MT 5'PFS AGA 3'PFS AAC (mixed)
RNA 1: CACCCGUGCAAAAAUGCAGGGGUCUAAAACUGAGCGGAUAACCUCUCUAUGG
RNA 2: GGGAAUGGAUCCACAUCUACGAAUUCAGACCAUAGAGAGGUUAUCCGCUCAAACAGAUCGGAAGAGCACACGU
B19: target 1 MT 5'PFS UCG 3'PFS UCA (mixed)
RNA 1: CACCCGUGCAAAAAUGCAGGGGUCUAAAACUGAGCGGAUAACCUCUCUAUGG
RNA 2: GGGAAUGGAUCCACAUCUACGAAUUCUCGCCAUAGAGAGGUUAUCCGCUCAUCAAGAUCGGAAGAGCACACGU
B20: target 1 MT 5'PFS ACG 3'PFS CGG (mixed)
RNA 1: CACCCGUGCAAAAAUGCAGGGGUCUAAAACUGAGCGGAUAACCUCUCUAUGG
RNA 2: GGGAAUGGAUCCACAUCUACGAAUUCACGCCAUAGAGAGGUUAUCCGCUCACGGAGAUCGGAAGAGCACACGU
B21: target 1 insU 3' of 18,insU 3' of 12 (mixed)
RNA 1: CACCCGUGCAAAAAUGCAGGGGUCUAAAACUGAGCGGAUAACCUCUCUAUGG
RNA 2: GGGAAUGGAUCCACAUCUACGAAUUCGUACCAUAUGAGAGGUUUAUCCGCUCACCGAGAUCGGAAGAGCACACGU
B22: target 1 insG 3' of 22,insU 3' of 2 (mixed)
RNA 1: CACCCGUGCAAAAAUGCAGGGGUCUAAAACUGAGCGGAUAACCUCUCUAUGG
RNA 2: GGGAAUGGAUCCACAUCUACGAAUUCGUACGCAUAGAGAGGUUAUCCGCUCUACCGAGAUCGGAAGAGCACACGU
B23: target 1 MT 5'PFS UGC 3'PFS ACU (mixed)
RNA 1: CACCCGUGCAAAAAUGCAGGGGUCUAAAACUGAGCGGAUAACCUCUCUAUGG
RNA 2: GGGAAUGGAUCCACAUCUACGAAUUCUGCCCAUAGAGAGGUUAUCCGCUCAACUAGAUCGGAAGAGCACACGU
B24: target 1 MT 5'PFS UGC 3'PFS ACA (mixed)
RNA 1: CACCCGUGCAAAAAUGCAGGGGUCUAAAACUGAGCGGAUAACCUCUCUAUGG
RNA 2: GGGAAUGGAUCCACAUCUACGAAUUCUGCCCAUAGAGAGGUUAUCCGCUCAACAAGAUCGGAAGAGCACACGU

Target: T1, EsCas13d, nuclease-dead
Assay: crRNA (strand 1, pre-loaded); Mg2+; 40 mM Tris-HCl pH 7.5, 150 mM NaCl, 6 mM MgCl2, 1 mM DTT, 0.1% Tween-20, 0.2 mg/ml BSA; 25 C; 10 min per concentration, then washed
Details: tags: His6-TwinStrep-SUMO cleaved; N-terminal SNAP kept (SNAP-Surface 488); label: 3' end held by stalled T7 RNA polymerase

In order of rising Kd:
1. B8  5.38 ± 0.505 nM
2. B15  7.85 ± 1 nM
3. B17  9.05 ± 1.55 nM
4. B5  10.8 ± 2.8 nM
5. B23  10.8 ± 2.45 nM
6. B16  14.1 ± 3.9 nM
7. B10  16.2 ± 4.65 nM
8. B1  17.6 ± 2.25 nM
9. B24  23.5 ± 8.5 nM
10. B12  24.5 ± 6.5 nM
11. B21  26.1 ± 1.7 nM
12. B7  ~27.5 nM
13. B22  29.7 ± 2.7 nM
14. B4  ~34 nM
15. B19  38.5 ± 13.5 nM
16. B14  43 ± 18 nM
17. B9  48.5 ± 10.5 nM
18. B20  57 ± 18 nM
19. B11  59 ± 20.5 nM
20. B6  61 ± 22 nM
21. B13  ~65.5 nM
22. B3  ~80 nM
23. B2  85 ± 23 nM
24. B18  ~90 nM
